Laboratory results as given in publication PMC10732536.

Biological target: Spz, activated cystine-knot domain (Drosophila melanogaster)
Assay: non-reducing SDS-PAGE and immunoblot; proSpz cleaved by the activated proteases, in the absence of DTT (fig. S10); anti-Spz C106 antibody

- stoichiometry N: 2
Substance: Spz, activated cystine-knot domain (domain or fragment)
